Legend:
MBP-DDX3Y = MBP-DDX3Y (human, UniProt O15523 1-660); test: smFRET
MBP-DDX3X = MBP-DDX3X (human, UniProt O00571 1-662); test: smFRET
Sequence of MBP-DDX3X (O00571 whole entry): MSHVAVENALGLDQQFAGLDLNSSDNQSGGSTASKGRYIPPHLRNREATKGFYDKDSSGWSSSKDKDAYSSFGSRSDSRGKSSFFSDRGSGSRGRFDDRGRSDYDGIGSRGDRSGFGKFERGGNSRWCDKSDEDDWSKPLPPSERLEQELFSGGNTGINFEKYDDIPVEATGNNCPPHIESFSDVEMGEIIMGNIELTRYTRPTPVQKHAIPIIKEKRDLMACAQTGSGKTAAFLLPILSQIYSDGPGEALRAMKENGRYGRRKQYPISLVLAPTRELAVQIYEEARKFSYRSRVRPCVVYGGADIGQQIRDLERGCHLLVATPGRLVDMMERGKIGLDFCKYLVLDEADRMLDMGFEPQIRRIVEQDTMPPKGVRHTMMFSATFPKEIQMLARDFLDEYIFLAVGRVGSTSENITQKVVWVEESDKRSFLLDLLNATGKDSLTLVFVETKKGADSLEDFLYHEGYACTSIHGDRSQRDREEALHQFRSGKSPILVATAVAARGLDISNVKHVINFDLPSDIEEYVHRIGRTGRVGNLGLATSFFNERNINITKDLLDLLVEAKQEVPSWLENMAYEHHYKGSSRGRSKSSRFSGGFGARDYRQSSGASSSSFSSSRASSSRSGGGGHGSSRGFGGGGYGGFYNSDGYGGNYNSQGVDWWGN

Sequence of MBP-DDX3Y (O15523 whole entry): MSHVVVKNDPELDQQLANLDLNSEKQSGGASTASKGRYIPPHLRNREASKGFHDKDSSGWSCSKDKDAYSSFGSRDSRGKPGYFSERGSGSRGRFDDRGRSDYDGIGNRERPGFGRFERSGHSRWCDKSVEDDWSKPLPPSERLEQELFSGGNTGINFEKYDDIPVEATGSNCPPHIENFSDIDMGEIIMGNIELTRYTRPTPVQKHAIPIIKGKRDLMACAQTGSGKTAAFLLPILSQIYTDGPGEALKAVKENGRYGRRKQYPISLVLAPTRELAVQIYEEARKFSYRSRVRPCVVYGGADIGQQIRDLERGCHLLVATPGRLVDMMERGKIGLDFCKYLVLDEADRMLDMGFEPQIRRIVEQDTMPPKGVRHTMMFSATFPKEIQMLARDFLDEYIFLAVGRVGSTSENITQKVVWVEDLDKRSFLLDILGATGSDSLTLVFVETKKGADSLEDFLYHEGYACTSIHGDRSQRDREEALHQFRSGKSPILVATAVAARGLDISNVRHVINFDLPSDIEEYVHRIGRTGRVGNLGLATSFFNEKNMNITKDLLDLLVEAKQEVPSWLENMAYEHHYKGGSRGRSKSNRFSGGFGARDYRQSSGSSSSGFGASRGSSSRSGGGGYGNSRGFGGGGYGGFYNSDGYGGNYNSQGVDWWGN

B1: smFRET dsRNA with 5' poly(U) overhang (dsRNA)
RNA 1: ACCGCUGCCGUCGCUCCG
RNA 2: UUUUUUUUUUUUUUUUUUUUUUUUUUUUUUUUUUUUUUUUUUUUUUUUUUCGGAGCGACGGCAGCGGU
- binding result (MBP-DDX3Y): binds
- binding result (MBP-DDX3X): binds

Reference: publication PMC9308757
